Source: patent US20100260765A1 (AstraZeneca / MedImmune, published 2010)
Residue numbers refer to the chain shown, from its start.

B1: 29D4 (antibody, V domains shown)
VH: QLQLQESGPGLVKPSETLSLTCTVSGGSISSRSNYWGWIRQPPGKGLEWIGTIYYSGHTYYNPSLKSRVSISVDTSKNQFSLKLSSVTATDTALYYCARQQLVLYYFEYWGQGTLVTVSS
VL: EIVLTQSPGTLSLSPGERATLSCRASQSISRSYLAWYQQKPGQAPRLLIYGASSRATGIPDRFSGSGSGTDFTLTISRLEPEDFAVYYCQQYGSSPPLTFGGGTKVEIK
notes: Fully human mAb from XenoMouse hybridoma, tested as hybridoma supernatant
B2: 32F4 (antibody, V domains shown)
VH: B1 VH with E16G, T21S, N34D, H58N, Y60F, S70T, N78K, T90A, L94V, E108D
VL: EIVLTQSPGTLSLSPGERATLSCRTSQSVSSSYLAWYQQKPGQAPRLLIYGASSRATGVPDRFSGSGSGTDFSLTISRLEPEDFAVYYCQQYGSSPPLTFGGGTKVEIK
notes: as for B1
B3: 29H3 (antibody, V domains shown)
VH: QVQLVQSGAEVKKPGASVKVSCKASGYTFTSYDINWVRQATGQGLEWMGWMNPNSGKTGYAQKFQGRVTMTRNTSINTAYMELSSLRSEDTAVYYCARGGYSNLGWFDPWGQGTLVTVSS
VL: DIQMTQSPSSVSASVGDRVTITCRASQGISSWLVWYHQKPGKAPKLLIYGASSLQSGVPSRFSGSGSGTDFTLTISSLQPEDFATYYCQQANNFPFTFGPGTKVDIK
notes: as for B1
B4: 33D5 (antibody, V domains shown)
VH: B3 VH with T30G, K57N, M70L, N77R, A79V, T114S
VL: B3 VL with A13V, V34A, H37Q, G50A, N93S
notes: as for B1
B5: 29F7 (antibody, V domains shown)
VH: B3 VH with N73S, N77S
VL: B3 VL with S12F, S31T, V34A, H37Q, L46F, G50A, E81D
notes: as for B1
B6: 29A3 (antibody, V domains shown)
VH: QVQLQESGPGLVKPSETLSLTCTVSGGSISSYFWSWIRQPAGKGLEWIGRIYFSGRTNYNPSLKSRVTMSVETSKNQFSLKLNSVTAADTAVYYCARDGGWNYDVAFDYWGQGTLVTVSS
VL: QAVLTQPSSLSASPGASASLTCTLRSGINVGTYRIYWYQQKPGSPPQYLLRYKSDSDQLQGSGVPSRFSGSKDASANAGILLISGLQSEDEADYYCMVWHSNTWVFGGGTKLTVL
notes: as for B1
B7: 32B2 (antibody, V domains shown)
VH: EVQLLESGGGLVQPGGSLRLSCAASGFTFSNYAMSWVRQAPGKGLDWVSAISGRGGSTYYADSVKGRFTISRDNSKNTLFLLMNSLRAEDTAVYYCAKASGDDWGQGTLVTVSS
VL: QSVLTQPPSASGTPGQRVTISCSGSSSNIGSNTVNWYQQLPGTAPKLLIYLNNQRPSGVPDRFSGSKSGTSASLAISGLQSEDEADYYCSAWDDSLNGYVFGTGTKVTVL
notes: as for B1
B8: 30H10 (antibody, V domains shown)
VH: B7 VH with D46E, R54S, S57I, L82Q, D103N, T111S
VL: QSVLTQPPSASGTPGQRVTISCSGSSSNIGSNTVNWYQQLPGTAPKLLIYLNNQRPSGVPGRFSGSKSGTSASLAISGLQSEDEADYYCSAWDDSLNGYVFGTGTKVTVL
notes: as for B1
B9: 29A11 (antibody, V domains shown)
VH: B7 VH with S35N, D46E, R54G, S57N, F80Y, L82Q, S85R
VL: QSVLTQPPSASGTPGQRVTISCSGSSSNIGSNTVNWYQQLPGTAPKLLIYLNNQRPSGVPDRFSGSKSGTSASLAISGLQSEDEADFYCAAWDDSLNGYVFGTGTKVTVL
notes: as for B1
B10: 30E3 (antibody, V domains shown)
VH: B7 VH with M34L, D46E, R54S, G56R, S57N, I70L, L82Q, D103N
VL: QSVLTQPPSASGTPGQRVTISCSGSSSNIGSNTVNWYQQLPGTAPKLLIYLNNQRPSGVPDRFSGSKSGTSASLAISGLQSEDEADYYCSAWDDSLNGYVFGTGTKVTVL
notes: as for B1

These binders were tested against KDR endogenously expressed on human umbilical vein endothelial cells (HUVEC) (human, UniProt P35968 20-1356) (assay: cell-based or functional assay).
Sequence of KDR endogenously expressed on human umbilical vein endothelial cells (HUVEC) (P35968 20-1356): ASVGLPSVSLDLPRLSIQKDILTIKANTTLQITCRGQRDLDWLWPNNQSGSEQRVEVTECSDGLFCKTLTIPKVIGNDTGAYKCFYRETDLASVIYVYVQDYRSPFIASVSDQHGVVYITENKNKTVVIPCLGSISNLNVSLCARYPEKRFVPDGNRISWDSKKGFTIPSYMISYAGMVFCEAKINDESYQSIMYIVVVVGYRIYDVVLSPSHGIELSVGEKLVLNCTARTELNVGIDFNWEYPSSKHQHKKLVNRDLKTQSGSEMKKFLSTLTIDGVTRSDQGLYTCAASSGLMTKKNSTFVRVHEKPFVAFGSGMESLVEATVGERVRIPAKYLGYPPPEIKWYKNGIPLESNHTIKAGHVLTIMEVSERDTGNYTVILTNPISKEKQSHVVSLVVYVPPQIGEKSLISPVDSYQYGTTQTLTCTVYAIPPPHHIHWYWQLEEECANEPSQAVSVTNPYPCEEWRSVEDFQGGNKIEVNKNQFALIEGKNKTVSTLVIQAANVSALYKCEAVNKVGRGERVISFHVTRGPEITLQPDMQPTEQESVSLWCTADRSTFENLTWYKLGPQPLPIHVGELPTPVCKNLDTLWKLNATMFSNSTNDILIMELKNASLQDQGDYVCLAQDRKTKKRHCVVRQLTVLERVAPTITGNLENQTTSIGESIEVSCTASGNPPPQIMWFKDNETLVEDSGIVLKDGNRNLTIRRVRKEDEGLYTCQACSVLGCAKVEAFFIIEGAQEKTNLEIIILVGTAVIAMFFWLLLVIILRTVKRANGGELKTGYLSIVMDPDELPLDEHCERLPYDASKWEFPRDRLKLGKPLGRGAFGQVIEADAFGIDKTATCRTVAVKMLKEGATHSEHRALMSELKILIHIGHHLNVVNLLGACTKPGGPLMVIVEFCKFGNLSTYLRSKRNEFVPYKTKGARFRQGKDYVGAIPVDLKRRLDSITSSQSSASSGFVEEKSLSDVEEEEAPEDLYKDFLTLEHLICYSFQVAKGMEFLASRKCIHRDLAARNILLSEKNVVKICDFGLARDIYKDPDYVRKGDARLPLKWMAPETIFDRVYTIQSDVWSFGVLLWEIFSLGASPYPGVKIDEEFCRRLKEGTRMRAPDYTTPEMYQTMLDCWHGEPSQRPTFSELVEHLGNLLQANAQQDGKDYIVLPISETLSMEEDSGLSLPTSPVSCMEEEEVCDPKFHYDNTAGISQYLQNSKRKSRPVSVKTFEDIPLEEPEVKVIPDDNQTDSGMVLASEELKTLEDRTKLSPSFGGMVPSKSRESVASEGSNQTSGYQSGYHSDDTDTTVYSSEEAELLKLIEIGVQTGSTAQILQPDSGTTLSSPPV

Binder | VEGF-E-mediated Survival % Inhibition (Average) [%] | VEGF-E-mediated Survival % Inhibition (n = 1) [%] | VEGF-E-mediated Survival % Inhibition (n = 2) [%]
B1 | 66 | 64 | 67
B2 | 64 | 64 | 64
B3 | -15 | -19 | -11
B4 | 0 | -2 | 2
B5 | 11 | 15 | 6
B6 | -10 | -1 | -20
B7 | -6 | -2 | -9
B8 | -10 | -21 | 2
B9 | 5 | 8 | 1
B10 | -14 | -21 | -7

The binders below were run against T1, soluble KDR extracellular domain (ECD) (Calbiochem) (human, UniProt P35968 20-764) (assay: High Antigen ELISA, KDR coat 500 ng/mL, supernatant 1:25).
T1 construct: extracellular domain; Bought protein; also called KDR-ECD; VEGF Receptor 2 D1-7, Cat. #676490
Procedure: (§1) ELISA plates were coated with a greater amount of KDR (at 500 ng/mL) in comparison with the Limited Antigen Quantitation assay described below. Sample containing antibody (Ab) was titrated on the KDR-coated ELISA plates and was incubated overnight at 4° C. to allow Ab binding to approach equilibrium. Titration of Ab in sample covered a dilution range of 1:25 to 1:18,225. A standard curve of KDR-specific antibody of known concentration was used to define the linear range of the assay. Data within the linear range were used to derive the relative concentration of KDR-specific Ab in each titrated sample. The high KDR concentration and the overnight incubation limited the effect of Ab affinity, allowing quantitation of the relative amount of KDR-specific Ab present in each sample.

T1 sequence (P35968 20-764): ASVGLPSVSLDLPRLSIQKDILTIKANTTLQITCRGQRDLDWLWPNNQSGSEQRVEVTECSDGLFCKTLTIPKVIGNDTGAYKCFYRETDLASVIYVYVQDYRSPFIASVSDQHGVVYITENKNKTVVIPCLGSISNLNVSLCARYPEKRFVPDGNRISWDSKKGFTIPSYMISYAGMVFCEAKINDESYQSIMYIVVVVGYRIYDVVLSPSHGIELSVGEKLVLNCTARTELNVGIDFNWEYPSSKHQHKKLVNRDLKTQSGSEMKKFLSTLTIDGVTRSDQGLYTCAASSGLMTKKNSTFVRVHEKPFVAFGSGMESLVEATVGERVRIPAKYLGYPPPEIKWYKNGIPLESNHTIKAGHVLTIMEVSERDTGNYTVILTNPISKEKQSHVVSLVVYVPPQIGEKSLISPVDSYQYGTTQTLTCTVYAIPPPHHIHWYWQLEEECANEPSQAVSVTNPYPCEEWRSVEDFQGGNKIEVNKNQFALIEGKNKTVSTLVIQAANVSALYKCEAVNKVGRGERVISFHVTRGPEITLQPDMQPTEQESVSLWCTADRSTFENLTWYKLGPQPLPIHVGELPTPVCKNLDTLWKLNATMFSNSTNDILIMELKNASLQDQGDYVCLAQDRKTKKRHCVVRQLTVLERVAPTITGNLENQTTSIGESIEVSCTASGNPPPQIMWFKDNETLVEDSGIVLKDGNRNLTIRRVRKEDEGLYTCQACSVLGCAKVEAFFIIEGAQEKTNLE

Binder | ELISA reading
B1 | 4.24
B2 | 4.79
B3 | 4.52
B4 | 4.61
B5 | 4.42
B6 | 3.89
B7 | 6
B8 | 4.42
B9 | 4.66
B10 | 6

These binders were tested against T1, soluble KDR extracellular domain (ECD) … (assay: High Antigen ELISA, KDR coat 500 ng/mL, supernatant 1:75).
Procedure: as §1

Binder | ELISA reading
B1 | 5.57
B2 | 5.56
B3 | 4.96
B4 | 4.56
B5 | 4.49
B6 | 4.06
B7 | 6
B8 | 6
B9 | 6
B10 | 4.78

The binders below were run against T1, soluble KDR extracellular domain (ECD) … (assay: High Antigen ELISA, KDR coat 500 ng/mL, supernatant 1:225).
Procedure: as §1

Binder | ELISA reading
B1 | 6
B2 | 6
B3 | 4.29
B4 | 4.78
B5 | 4.26
B6 | 3.85
B7 | 6
B8 | 6
B9 | 6
B10 | 4.45

Each binder was assayed against T1, soluble KDR extracellular domain (ECD) … (assay: High Antigen ELISA, KDR coat 500 ng/mL, supernatant 1:675).
Procedure: as §1

Binder | ELISA reading
B1 | 4.09
B2 | 4.61
B3 | 2.83
B4 | 6
B5 | 3.76
B6 | 3.32
B7 | 6
B8 | 4.61
B9 | 5.09
B10 | 2.12

Each binder was assayed against T1, soluble KDR extracellular domain (ECD) … (assay: High Antigen ELISA, KDR coat 500 ng/mL, supernatant 1:2025).
Procedure: as §1

Binder | ELISA reading
B1 | 2.06
B2 | 2.71
B3 | 1.42
B4 | 3.65
B5 | 1.68
B6 | 1.91
B7 | 3.33
B8 | 2.52
B9 | 4.33
B10 | 0.86

Each binder was assayed against T1, soluble KDR extracellular domain (ECD) … (assay: High Antigen ELISA, KDR coat 500 ng/mL, supernatant 1:6075).
Procedure: as §1

Binder | ELISA reading
B1 | 0.66
B2 | 0.97
B3 | 0.47
B4 | 1.7
B5 | 0.57
B6 | 0.57
B7 | 1.54
B8 | 1.18
B9 | 2.16
B10 | 0.32

Each binder was assayed against T1, soluble KDR extracellular domain (ECD) … (assay: Limited Antigen ELISA, KDR coat 25 ng/mL, supernatant 1:25).
Procedure: (§2) Samples containing one concentration of antibody (Ab) (1:25 dilution) were incubated overnight to allow Ab binding to approach equilibrium. The low antigen concentration limited the effect of antibody concentration, allowing ranking of the antibodies based on their relative affinity.

Binder | ELISA reading
B1 | 1.87
B2 | 1.09
B3 | 1.03
B4 | 2.2
B5 | 2.19
B6 | 1.13
B7 | 1.69
B8 | 1.18
B9 | 1.9
B10 | 1.37

The binders below were run against T1, soluble KDR extracellular domain (ECD) … (assay: Limited Antigen ELISA, KDR coat 50 ng/mL, supernatant 1:25).
Procedure: as §2

Binder | ELISA reading
B1 | 3.31
B2 | 2.22
B3 | 2.13
B4 | 3.81
B5 | 3.54
B6 | 2.27
B7 | 2.9
B8 | 2.21
B9 | 3.43
B10 | 2.71

The binders below were run against T1, soluble KDR extracellular domain (ECD) … (assay: High Antigen ELISA, KDR coat 500 ng/mL, supernatant 1:18,225).
Procedure: as §1

Binder | ELISA reading
B1 | 0.25
B2 | 0.5
B3 | 0.21
B4 | 0.87
B5 | 0.22
B6 | 0.24
B7 | 0.8
B8 | 0.64
B9 | 0.99
B10 | 0.18

Each binder was assayed against T1, soluble KDR extracellular domain (ECD) … (assay: Limited Antigen ELISA, KDR coat 12.5 ng/mL, supernatant 1:25).
Procedure: as §2

Binder | ELISA reading
B1 | 0.8
B2 | 0.74
B3 | 0.4
B4 | 1.32
B5 | 1
B6 | 0.49
B7 | 0.86
B8 | 0.52
B9 | 1.05
B10 | 0.73

Each binder was assayed against T1, soluble KDR extracellular domain (ECD) … (assay: Limited Antigen ELISA, KDR coat 6.25 ng/mL, supernatant 1:25).
Procedure: as §2

Binder | ELISA reading
B1 | 0.41
B2 | 0.36
B3 | 0.24
B4 | 0.61
B5 | 0.51
B6 | 0.27
B7 | 0.42
B8 | 0.31
B9 | 0.59
B10 | 0.43

These binders were tested against T1, soluble KDR extracellular domain (ECD) … (assay: Limited Antigen ELISA, KDR coat 3.125 ng/mL, supernatant 1:25).
Procedure: as §2

Binder | ELISA reading
B1 | 0.23
B2 | 0.23
B3 | 0.16
B4 | 0.33
B5 | 0.25
B6 | 0.16
B7 | 0.25
B8 | 0.17
B9 | 0.3
B10 | 0.24
